Patent US20050075488A1 (published 2005)
Numbering of substitutions follows the chain as printed.

T1: human IL-1α (human, UniProt P01583 113-271)
T1 sequence (looked up): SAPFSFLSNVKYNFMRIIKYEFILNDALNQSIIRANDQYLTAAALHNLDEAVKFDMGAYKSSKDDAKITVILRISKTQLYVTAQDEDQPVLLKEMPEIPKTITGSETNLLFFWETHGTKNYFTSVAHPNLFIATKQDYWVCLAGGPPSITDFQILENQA

B1: mouse monoclonal antibody Mu007 (antibody, V domains shown)
VH: QVQLVQSGAEVKKPGASVKVSCKVSGYTFSRYWIEWVRQAPGKGLEWIGEILPGNGNINYNEKFKGKATITADTSTDTAYMELSSLRSEDTAVYYCSTIYYDYDQGFTYWGQGTLVTVSA
VL: DIKMTQSPSSMYASLGERVTITCKASQDIDRYLSWFQQKPGKSPKTLIYRVKRLVDGVPSRFSGSASGQDYSLTISSLQYEDMGIYYCLQYDEFPYTFGGGTKLEIK
B2: humanized antibody Hu007 (antibody, human IgG1, kappa, V domains shown)
VH: B1 VH with A120S
VL: DIQMTQSPSSLSASVGDRVTITCKASQDIDRYLSWFQQKPGKAPKSLIYRVKRLVDGVPSRFSGSASGTDYTLTISSLQPEDFATYYCLQYDEFPYTFGQGTKLEIKR
notes: the listing entries may be nucleotide entries with a translation; also called Hu007 IgG1 monoclonal antibody

Experiments:
[1] = molecular target: T2, human IL-1β (human, UniProt P01584 117-269); assay: cell-based or functional assay
[2] = molecular target: T1, human IL-1α; assay: BIAcore (refers to Example 9)
Procedure: Affinities and specificities of both Hu007 and Mu007 were determined using BIAcore measurements. BIAcore™ is an automated biosensor system that measures molecular interactions. (Karlsson, et al. (1991) J. Immunol. Methods 145: 229-240). In these experiments antibody was immobilized at low density on a BIAcoreTm chip. Ethyl-dimethylaminopropyl-carbodiimide (EDC) was used to couple reactive amino groups to purified goat anti-human IgG or oat anti-rabbit IgG to a flow cell of a carboxy-methyl (CM5) BIAcore™ sensor chip. Goat IgG was diluted in sodium cetate buffer, pH 4.0, and immobilized on a flow cell of a M5 chip using EDC to yield 1000 response units. Unreacted sites were blocked with ehanolamine. A flow rate of 60 μl/min was used. Multiple binding/elution cycles were performed by injection a 100 μl solution of 15 μg/mL Mu007 or Hu007 followed by human IL-1β, mouse IL-1β, rat IL-1β, cynomolgus monkey IL-1β, porcine IL-1β, human IL-1 receptor antagonist, and human IL-1α at decreasing concentrations for each cycle (e.g. 1500, 750, 375, 188, 94, 47, 23.5, 12, and 0 picomolar). Elution was performed with glycine-HCl, pH 1.5. BIAevaluation™ was used to analyze the kinetic data. Table 2 depicts the affinities of Hu007 and Mu007 for human and cynomolgus IL1β. […] Cynomolgus and porcein IL-1β had 100% binding to Hu007 relative to human IL-1β.

[3] = molecular target: T2, human IL-1β; assay: cell-based or functional assay; remark: listed apart in the source
[4] = molecular target: T2, human IL-1β; assay: BIAcore, antibody immobilized at low density, ligand flowed (refers to Example 9)
Procedure: The binding affinity of the Mu007 antibody was determined using surface plasmon resonance (BIAcore™). In these experiments antibody was immobilized at low density on a BIAcore™ chip and ligand was flowed past. Build up of mass at the surface of the chip was measured. This analytical method allows the determination in real time of both on and off rates for binding. The Mu007 antibody has an affinity of approximately 6.0 picomolar (See Example 9). […] (See example 9). Hu007 comprises heavy and light chains that correspond to SEQ ID NO:17 and SEQ ID NO:13, respectively.
Affinities and specificities of both Hu007 and Mu007 were determined using BIAcore measurements. BIAcore™ is an automated biosensor system that measures molecular interactions. (Karlsson, et al. (1991) J. Immunol. Methods 145: 229-240). In these experiments antibody was immobilized at low density on a BIAcoreTm chip. Ethyl-dimethylaminopropyl-carbodiimide (EDC) was used to couple reactive amino groups to purified goat anti-human IgG or oat anti-rabbit IgG to a flow cell of a carboxy-methyl (CM5) BIAcore™ sensor chip. Goat IgG was diluted in sodium cetate buffer, pH 4.0, and immobilized on a flow cell of a M5 chip using EDC to yield 1000 response units. Unreacted sites were blocked with ehanolamine. A flow rate of 60 μl/min was used. […]

[5] = molecular target: T2, human IL-1β; assay: ELISA competition on coated human IL-1β, competitor biotinylated Mu007, average
Procedure: (§1) Wells of 96-well ELISA plates (Nunc-Immuno plate, Cat # 439454, NalgeNunc) were coated with 100 μμl of 0.5 μg/ml of human IL-1β in 0.2M sodium carbonate-bicarbonate buffer (pH 9.4) overnight at 4° C., washed with Wash Buffer, blocked with Superblock blocking buffer for 30 min at 37° C., and washed again with Wash Buffer. A mixture of biotinylated Mu007 (0.16 μg/ml final concentration) and competitor antibody (Mu007 or Hu007; starting at 100 μg/ml final concentration and serial 3-fold dilutions) in ELISA Buffer were added in triplicate in a final volume of 100 μl per well. As a no-competitor control, 100 μl of 0.16 μg/ml biotinylated Mu007 was used. As a background control, 100 μl of ELISA Buffer was used. ELISA plates were incubated at 37° C. for 2 hr. After washing the wells with Washing Buffer, 100 μl of 1 μg/ml HRP-conjugated streptavidin (Jackson ImmunoResearch) was added to each well. ELISA plates were incubated at room temperature for 30 min and washed with Washing Buffer. For color development, 100 μl/well of ABTS substrate was added. Color development was stopped by adding 100 μl/well of 2% oxalic acid. Absorbance was read at 415 nm.
(§2) Both Mu007 and Hu007 competed with biotinylated Mu007 in a concentration-dependent manner. […]

[6] = molecular target: T2, human IL-1β; assay: ELISA competition on coated human IL-1β, competitor biotinylated Mu007, Exp. C
Procedure: as §1, §2

[7] = molecular target: T2, human IL-1β; assay: ELISA competition on coated human IL-1β, competitor biotinylated Mu007, Exp. A
Procedure: as §1, §2

[8] = molecular target: T2, human IL-1β; assay: ELISA competition on coated human IL-1β, competitor biotinylated Mu007, Exp. B
Procedure: as §1, §2

[9] = molecular target: T2, human IL-1β; assay: ELISA competition on coated human IL-1β, competitor biotinylated Mu007
Procedure: as §1, §2

| Binder | inhibition of IL-1β stimulated proliferation of T1165.17 cells (3H-thymidine incorporation), average IC50 from three separate experiments [1] | binding result [2] | IC50 (read off the curve) [3] | Kd [4] | Difference (IC50 of Hu007 against IC50 of Mu007) [5] | neutralization of human IL-1β in the murine model of inflammatory stimulation, relative to Mu007 [1] | Difference (IC50 of Hu007 against IC50 of Mu007) [6] | Difference (IC50 of Hu007 against IC50 of Mu007) [7] | Difference (IC50 of Hu007 against IC50 of Mu007) [8] | relative binding, fold less than that of Mu007 [9] |
| --- | --- | --- | --- | --- | --- | --- | --- | --- | --- | --- |
| B1 | 0.22 nM | no binding | ~0.2 nM | ~0.006 nM | – | – | – | – | – | – |
| B2 | 0.48 nM | – | ~0.4 nM | 0.01 to 0.02 nM | 0.89 ratio | ~0.33 fold of Mu007 | 0.82 ratio | 0.98 ratio | 0.88 ratio | 1.3 fold |
